Results reported in patent publication US20040224408A1, “THAP proteins as nuclear receptors for chemokines and roles in transcriptional regulation, cell proliferation and cell differentiation” (published 2004).
Each block holds one binder with its values, some of them ahead of it.

Key:
human THAP1 (THanatos …) [1] = target: T1, human THAP1 (THanatos (death)-Associated Protein-1), full length (human, UniProt Q9NVV9 1-213); assay: yeast two-hybrid, BD7-THAP1 with AD7-SLC/CCL21ΔCOOH; identical results in the opposite orientation
T1 construct: also called hTHAP1; FLJ10477
T1 sequence: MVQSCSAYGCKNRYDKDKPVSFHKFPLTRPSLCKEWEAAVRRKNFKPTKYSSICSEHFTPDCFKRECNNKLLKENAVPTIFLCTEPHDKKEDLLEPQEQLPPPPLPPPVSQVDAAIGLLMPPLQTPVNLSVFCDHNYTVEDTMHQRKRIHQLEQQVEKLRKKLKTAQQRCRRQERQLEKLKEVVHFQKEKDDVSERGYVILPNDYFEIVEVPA
Excerpt: For two-hybrid assays, yeast cells were cotransformed with BD7-THAP1 and AD7-SLC/CCL21 or AD7-SLC/CCL21ΔCOOH expression vectors. AD7-SLC/CCL21 or AD7-SLC/CCL21ΔCOOH expression vectors were generated by subcloning BamHI fragment (encoding SLC amino acids 24-134) or BamHI-PstI fragment (encoding SLC amino acids 24-102) from pGKT7-SLC/CCL21 (see example 15) into pGADT7 expression vector (Clontech). Transformants were selected on media lacking histidine and adenine. […] Identical results were obtained by cotransformation of AD7-THAP1 with BD7-SLC/CCL21 or BD7-SLC/CCL21ΔCOOH.

[2] = target: T2, GST-Par4DD fusion protein (pGEX-2T-Par4DD, Par4 amino acids 250-342) (human, UniProt Q96IZ0 248-340); assay: in vitro THAP1/Par4 interaction assay (GST pull-down with GST-Par4DD)
T2 construct: Expressed in E. coli DH5alpha and immobilized on glutathione sepharose; not shown: Glutathione S-transferase (GST) encoded by the pGEX-2T prokaryotic expression vector (Amersham Pharmacia Biotech); N-ter
T2 chain: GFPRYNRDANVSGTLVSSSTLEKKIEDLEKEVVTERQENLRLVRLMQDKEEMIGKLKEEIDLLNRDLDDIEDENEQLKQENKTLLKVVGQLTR
Protocol: THAP1 mutants were also tested in the in vitro THAP1/Par4 interaction assay. In vitro-translated THAP1 mutants were generated with the TNT-coupled reticulocyte lysate system (Promega, Madison, Wis., USA) using pGBKT7-THAP1-C1, -C2, -C3, -N1, -N2 or -N3 vector as template. 25 μl of each ³⁵S-labelled THAP1 mutant was incubated with immobilized GST or GST-Par4 protein overnight at 4° C., in the following binding buffer: 10 mM NaPO4 pH 8.0, 140 mM NaCl, 3 mM MgCl2, 1 mM dithiothreitol (DTT), 0.05% NP40, and 0.2 mM phenylmethyl sulphonyl fluoride (PMSF), 1 mM Na Vanadate, 50 mM β Glycerophosphate, 25 μg/ml chimotrypsine, 5 μg/ml aprotinin, 10 μg/ml Leupeptin. Beads were then washed 5 times in 1 ml binding buffer. Bound proteins were eluted with 2×Laemmli SDS-PAGE sample buffer, fractionated by 10% SDS-PAGE and visualized by fluorography using Amplify (Amersham Pharmacia Biotech). As expected, THAP1-C1, -C2, -C3, -and -N3 interacted with GST/Par4DD (FIG. 4B).
for mutant THAP1ΔQRCRR. The resulting PCR fragments were digested with EcoRI and BamHI, and cloned in frame downstream of the Gal4 Binding Domain (Gal4-BD) in pGBKT7 two-hybrid vector (Clontech) to generate pGBKT7-THAP1-RR/AA and −Δ(QRCRR), or downstream of the Enhanced Green Fluorescent Protein (EGFP) ORF in pEGFP.C2 vector (Clontech) to generate pEGFP.C2-THAP1-RR/AA and −Δ(QRCRR). […]

[3] = target: T3, Par4 leucine zipper/death domain (Par4DD, amino acids 250-342) (human, UniProt Q96IZ0 248-340); assay: yeast two-hybrid
T3 construct: also called myc-Par4DD; mycPar4DD
T3 chain: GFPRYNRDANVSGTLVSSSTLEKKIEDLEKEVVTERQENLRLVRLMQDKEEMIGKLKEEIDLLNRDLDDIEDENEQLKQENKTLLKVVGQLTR
Protocol: Two-hybrid interaction between THAP1 mutants and Par4DD was tested by cotransformation of AH109 with pGBKT7-THAP1-C1, -C2, -C3, -N1, -N2 or -N3 and pGADT7-Par4DD and selection of transformants by His and Ade double auxotrophy according to manufacturer's instructions ([…] two-hybrid system 3, Clontech).
for mutant THAP1ΔQRCRR. The resulting PCR fragments were digested with EcoRI and BamHI, and cloned in frame downstream of the Gal4 Binding Domain (Gal4-BD) in pGBKT7 two-hybrid vector (Clontech) to generate pGBKT7-THAP1-RR/AA and −Δ(QRCRR), or downstream of the Enhanced Green Fluorescent Protein (EGFP) ORF in pEGFP.C2 vector (Clontech) to generate pEGFP.C2-THAP1-RR/AA and −Δ(QRCRR). THAP1 RR/AA and THAP1ΔQRCRR THAP1 mutants were then tested in the three THAP1/Par4 interaction assays (two-hybrid assay, in vitro THAP1/Par4 interaction assay, in vivo THAP1/Par4 interaction assay) as described above for the THAP1-C1, -C2, -C3, -N1, -N2 or -N3 mutants.

human THAP1 (THanatos …) [4] = target: T1, human THAP1 (THanatos …); assay: yeast two-hybrid, both orientations (His/Ade selection)
Excerpt: We then examined whether the leucine zipper/death domain at the C-terminus of Par4, previously shown to be involved in Par4 binding to WT-1 and aPKC, was required for the interaction between THAP1 and Par4. Two Par4 mutants were constructed for that purpose, Par4A and Par4DD. Par4A lacks the leucine zipper/death domain while Par4DD contains this domain. pGBKT7-Par4A(amino acids 1-276) and pGADT7-Par4A. were constructed by sub-cloning a EcoRI-BglII fragment from pGADT7-Par4 into the EcoRI and BamHI sites of pGBKT7 and pGADT7. Par4DD (amino acids 250-342) was amplified by PCR, using pGBKT7-Par4 as template, with primers Par4.4 (5′-[…]-3′) (SEQ ID NO: 193) and Par4.5, and cloned into the EcoRI and BamHI sites of pGBKT7 and pGADT7 to obtain pGBKT7-Par4DD and pGADT7-Par4DD. Two-hybrid interaction between THAP1 and Par4 mutants was tested by cotransformation of AH109 with pGBKT7-THAP1 and pGADT7-Par4A or pGADT7-Par4DD and selection of transformants by His and Ade double auxotrophy according to manufacturer's instructions ([…] two-hybrid system 3, Clontech). […] Similar results were obtained when two-hybrid experiments were performed in the opposite orientation using Par4 or Par4 mutants (Par4A and Par4DD) as baits instead of THAP1 (FIG. 3A).

human THAP3 = target: T4, human THAP3 (human, UniProt Q8WTV1 1-239, limits assumed); assay: yeast two-hybrid using Par-4 wild type bait (FIG. 10B)
T4 construct: also called hTHAP3
T4 sequence: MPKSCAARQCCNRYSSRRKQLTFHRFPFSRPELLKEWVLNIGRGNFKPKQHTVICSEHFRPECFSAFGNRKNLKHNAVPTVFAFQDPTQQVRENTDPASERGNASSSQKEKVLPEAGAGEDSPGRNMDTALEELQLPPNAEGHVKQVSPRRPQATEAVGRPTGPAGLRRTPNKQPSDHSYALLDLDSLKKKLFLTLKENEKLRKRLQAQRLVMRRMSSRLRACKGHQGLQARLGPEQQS

human THAP2 = target: T5, human THAP2 (human, UniProt Q9H0W7 1-228, limits assumed); assay: as above
T5 construct: also called hTHAP2
T5 sequence (Q9H0W7 whole entry): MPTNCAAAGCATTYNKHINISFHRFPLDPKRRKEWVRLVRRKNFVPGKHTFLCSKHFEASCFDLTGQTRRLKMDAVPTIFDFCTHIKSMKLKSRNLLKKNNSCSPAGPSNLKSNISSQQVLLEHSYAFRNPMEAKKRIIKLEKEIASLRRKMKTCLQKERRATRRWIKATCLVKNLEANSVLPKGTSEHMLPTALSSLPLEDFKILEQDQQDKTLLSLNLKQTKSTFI

B1: SLC/CCL21ΔCOOH deletion mutant lacking the basic carboxy-terminal extension (ligand)
chain: SDGGAQDCCLKYSQRKIPAKVVRSYRKQEPSLGCSIPAILFLPRKRSQAELCADPKELWVQQLMQHLDKTPSPQKPAQG
notes: Tested as a Gal4-AD or Gal4-BD fusion and as in vitro translated protein; also called SLC/CCL21?COOH
binding result (human THAP1 (THanatos …) [1]): binds

binding result [2]: no binding
B2: THAP1 RR/AA mutant (R171A, R172A) (other)
chain: MVQSCSAYGCKNRYDKDKPVSFHKFPLTRPSLCKEWEAAVRRKNFKPTKYSSICSEHFTPDCFKRECNNKLLKENAVPTIFLCTEPHDKKEDLLEPQEQLPPPPLPPPVSQVDAAIGLLMPPLQTPVNLSVFCDHNYTVEDTMHQRKRIHQLEQQVEKLRKKLKTAQQRCAAQERQLEKLKEVVHFQKEKDDVSERGYVILPNDYFEIVEVPA
notes: Tested as a Gal4-BD fusion (pGBKT7), as in vitro translated protein and as an EGFP fusion; also called THAP RR/AA
binding result [3]: no binding

binding result (human THAP3): binds
binding result (human THAP2): binds
B3: human prostate apoptosis response-4 protein (PAR4), full length (other)
chain: MATGGYRTSSGLGGSTTDFLEEWKAKREKMRAKQNPPGPAPPGGGSSDAAGKPPAGALGTPAAAAANELNNNLPGGAPAAPAVPGPGGVNCAVGSAMLTRAPPARGPRRSEDEPPAASASAAPPPQRDEEEPDGVPEKGKSSGPSARKGKGQIEKRKLREKRRSTGVVNIPAAECLDEYEDDEAGQKERKREDAITQQNTIQNEAVNLLDPGSSYLLQEPPRTVSGRYKSTTSVSEEDVSSRYSRTDRSGFPRYNRDANVSGTLVSSSTLEKKIEDLEKEVVTERQENLRLVRLMQDKEEMIGKLKEEIDLLNRDLDDIEDENEQLKQENKTLLKVVGQLTR
notes: Tested as a Gal4-BD (pGBKT7-Par4) or Gal4-AD (pGADT7-Par4) fusion in yeast two-hybrid; also called Par4 wild type
binding result (human THAP1 (THanatos …) [4]): binds
